US10160993B2, “Tyrosine kinase biosensors and methods of use” (Purdue Research Foundation, priority 2014, dated 2018)
No end group written: not given here. *: point of attachment. Biotin = O=C1N[C@H]2[C@H](CS[C@H]2CCCCC(=O)*)N1

Experiments:
Assay type in all cases: biochemical
[1] = biological target: ALK kinase (Homo sapiens, UniProt Q9UM73); assay: ELISA assay of peptide phosphorylation by ALK kinase in vitro; settings: 25 μM peptides, 0.1 unit kinase, 100 μM ATP, 10 mM Mg2+, pH 7.5, 35-38° C.
Sequence of ALK kinase (Q9UM73 19-1620): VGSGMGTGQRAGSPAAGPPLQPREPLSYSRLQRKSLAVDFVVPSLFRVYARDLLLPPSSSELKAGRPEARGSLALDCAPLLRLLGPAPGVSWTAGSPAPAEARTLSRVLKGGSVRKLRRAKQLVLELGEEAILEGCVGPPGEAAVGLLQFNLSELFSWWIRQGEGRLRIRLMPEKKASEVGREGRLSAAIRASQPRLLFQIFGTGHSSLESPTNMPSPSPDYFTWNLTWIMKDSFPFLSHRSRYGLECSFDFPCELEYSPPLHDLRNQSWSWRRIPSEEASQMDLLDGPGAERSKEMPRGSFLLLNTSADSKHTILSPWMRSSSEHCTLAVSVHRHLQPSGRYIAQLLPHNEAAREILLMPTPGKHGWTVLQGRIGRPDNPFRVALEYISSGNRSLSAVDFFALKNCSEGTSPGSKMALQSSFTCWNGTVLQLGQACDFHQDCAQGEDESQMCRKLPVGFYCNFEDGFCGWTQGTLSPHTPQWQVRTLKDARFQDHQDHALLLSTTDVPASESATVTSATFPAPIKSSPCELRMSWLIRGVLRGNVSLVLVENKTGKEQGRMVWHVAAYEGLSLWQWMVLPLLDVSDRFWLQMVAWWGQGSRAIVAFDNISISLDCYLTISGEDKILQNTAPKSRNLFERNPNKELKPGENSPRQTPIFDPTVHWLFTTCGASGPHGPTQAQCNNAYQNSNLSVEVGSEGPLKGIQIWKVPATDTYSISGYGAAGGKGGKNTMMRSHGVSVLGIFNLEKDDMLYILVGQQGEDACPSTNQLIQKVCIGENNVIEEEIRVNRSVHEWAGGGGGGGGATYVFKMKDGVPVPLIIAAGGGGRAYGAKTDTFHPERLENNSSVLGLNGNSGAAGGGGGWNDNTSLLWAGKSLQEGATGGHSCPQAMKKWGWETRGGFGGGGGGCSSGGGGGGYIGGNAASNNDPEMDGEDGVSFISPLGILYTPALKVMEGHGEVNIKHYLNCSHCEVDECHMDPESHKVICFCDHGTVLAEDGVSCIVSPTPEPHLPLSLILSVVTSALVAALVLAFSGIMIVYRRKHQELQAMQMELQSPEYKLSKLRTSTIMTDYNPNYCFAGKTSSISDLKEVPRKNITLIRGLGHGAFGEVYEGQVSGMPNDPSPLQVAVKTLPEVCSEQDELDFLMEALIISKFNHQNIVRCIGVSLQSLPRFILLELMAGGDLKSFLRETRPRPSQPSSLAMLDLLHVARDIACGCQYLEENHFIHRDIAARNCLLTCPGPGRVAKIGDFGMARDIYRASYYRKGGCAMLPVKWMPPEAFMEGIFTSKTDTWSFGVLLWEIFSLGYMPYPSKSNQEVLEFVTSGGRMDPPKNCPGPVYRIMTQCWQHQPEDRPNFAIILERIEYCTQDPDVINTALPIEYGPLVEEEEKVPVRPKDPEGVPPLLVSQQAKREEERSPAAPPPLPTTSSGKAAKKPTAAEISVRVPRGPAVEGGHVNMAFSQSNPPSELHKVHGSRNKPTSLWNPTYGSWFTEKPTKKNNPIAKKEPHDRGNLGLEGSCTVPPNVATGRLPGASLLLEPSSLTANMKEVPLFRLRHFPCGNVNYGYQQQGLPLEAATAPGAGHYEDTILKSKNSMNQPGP
Experimental: (§1) Referring now to FIG. 1 which illustrates ALAStide-A (SEQ. ID NO. 1) and ALAStide-B (SEQ. ID NO. 2) being phosphorylated by ALK kinase in vitro, the results are obtained by an enzyme-linked immunosorbent assay (ELISA). […] Total reaction volume is 50 μL, and reaction temperature is set between 35-38° C. At selected time points, 5 μL, sample was taken out and quenched in 20 μL 40 mM EDTA solution. The quenched samples were then used to perform ELISA assay.

[2] = biological target: Lyn (Homo sapiens, UniProt P07948); assay: ELISA specificity assay, phosphorylation by Lyn; settings: conditions similar to ALK ELISA
Sequence of Lyn (P07948 whole entry, species assumed): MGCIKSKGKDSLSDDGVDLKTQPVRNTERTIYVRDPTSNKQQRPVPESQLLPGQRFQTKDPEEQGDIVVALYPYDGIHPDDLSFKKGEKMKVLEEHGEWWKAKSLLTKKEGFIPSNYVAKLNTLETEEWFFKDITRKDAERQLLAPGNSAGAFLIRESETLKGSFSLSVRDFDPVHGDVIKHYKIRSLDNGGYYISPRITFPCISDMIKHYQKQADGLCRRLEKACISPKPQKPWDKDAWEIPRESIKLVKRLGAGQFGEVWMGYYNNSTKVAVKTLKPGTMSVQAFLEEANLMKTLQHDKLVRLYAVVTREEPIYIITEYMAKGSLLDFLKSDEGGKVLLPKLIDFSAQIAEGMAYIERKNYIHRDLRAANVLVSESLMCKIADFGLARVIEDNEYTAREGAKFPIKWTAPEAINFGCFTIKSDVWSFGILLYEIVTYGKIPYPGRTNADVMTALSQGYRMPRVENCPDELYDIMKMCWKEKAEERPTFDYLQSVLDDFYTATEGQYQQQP
Experimental: as §1
(§2) The specificity of the ALK-specific biosensors, ALAStide-A and ALAStide-B is shown in an ELISA assay, with YFF peptide used as a positive and negative control. The ALK-specific biosensors were assayed for phosphorylation activity against ALK, Lyn, Abl, and Csk. YFF peptide, whose kinase specificity (as reported in Biochemistry 44, 8533-8542, 2005) is used as a reference. The experimental condition may be similar to those described for the ELISA assay above.

[3] = biological target: Abl (Homo sapiens, UniProt P00519); assay: ELISA specificity assay, phosphorylation by Abl; settings: conditions similar to ALK ELISA
Sequence of Abl (P00519 whole entry, species assumed): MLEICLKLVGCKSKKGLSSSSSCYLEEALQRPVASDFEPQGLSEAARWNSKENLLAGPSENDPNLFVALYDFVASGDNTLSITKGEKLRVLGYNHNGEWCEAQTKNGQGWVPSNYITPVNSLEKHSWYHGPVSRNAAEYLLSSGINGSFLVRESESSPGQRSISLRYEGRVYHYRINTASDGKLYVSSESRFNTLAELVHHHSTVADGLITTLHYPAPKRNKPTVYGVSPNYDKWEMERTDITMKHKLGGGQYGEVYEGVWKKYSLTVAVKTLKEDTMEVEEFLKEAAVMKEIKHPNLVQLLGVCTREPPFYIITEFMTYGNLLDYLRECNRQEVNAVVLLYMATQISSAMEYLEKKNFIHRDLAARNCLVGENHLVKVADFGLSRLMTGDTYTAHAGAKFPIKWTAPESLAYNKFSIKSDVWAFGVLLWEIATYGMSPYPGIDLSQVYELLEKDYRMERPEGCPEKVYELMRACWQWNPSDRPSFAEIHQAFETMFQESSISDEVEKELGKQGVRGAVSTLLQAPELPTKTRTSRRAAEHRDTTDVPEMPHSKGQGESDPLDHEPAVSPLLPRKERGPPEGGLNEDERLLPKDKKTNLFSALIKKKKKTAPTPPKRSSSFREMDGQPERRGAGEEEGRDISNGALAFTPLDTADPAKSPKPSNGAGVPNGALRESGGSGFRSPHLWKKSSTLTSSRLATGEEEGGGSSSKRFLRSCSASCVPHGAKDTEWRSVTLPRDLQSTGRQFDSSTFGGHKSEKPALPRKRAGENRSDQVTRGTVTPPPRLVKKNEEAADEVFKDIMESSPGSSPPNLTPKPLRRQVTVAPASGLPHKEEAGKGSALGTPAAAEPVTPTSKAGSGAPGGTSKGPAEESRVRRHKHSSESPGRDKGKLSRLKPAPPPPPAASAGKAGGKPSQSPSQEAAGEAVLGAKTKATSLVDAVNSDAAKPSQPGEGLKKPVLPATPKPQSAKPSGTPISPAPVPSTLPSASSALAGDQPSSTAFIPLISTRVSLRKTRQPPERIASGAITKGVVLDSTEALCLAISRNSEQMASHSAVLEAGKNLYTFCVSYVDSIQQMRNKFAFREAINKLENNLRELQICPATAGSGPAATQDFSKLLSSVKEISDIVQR
Experimental: as §1, §2

[4] = biological target: Csk (Homo sapiens, UniProt P41240); assay: ELISA specificity assay, phosphorylation by Csk; settings: conditions similar to ALK ELISA
Sequence of Csk (P41240 whole entry, species assumed): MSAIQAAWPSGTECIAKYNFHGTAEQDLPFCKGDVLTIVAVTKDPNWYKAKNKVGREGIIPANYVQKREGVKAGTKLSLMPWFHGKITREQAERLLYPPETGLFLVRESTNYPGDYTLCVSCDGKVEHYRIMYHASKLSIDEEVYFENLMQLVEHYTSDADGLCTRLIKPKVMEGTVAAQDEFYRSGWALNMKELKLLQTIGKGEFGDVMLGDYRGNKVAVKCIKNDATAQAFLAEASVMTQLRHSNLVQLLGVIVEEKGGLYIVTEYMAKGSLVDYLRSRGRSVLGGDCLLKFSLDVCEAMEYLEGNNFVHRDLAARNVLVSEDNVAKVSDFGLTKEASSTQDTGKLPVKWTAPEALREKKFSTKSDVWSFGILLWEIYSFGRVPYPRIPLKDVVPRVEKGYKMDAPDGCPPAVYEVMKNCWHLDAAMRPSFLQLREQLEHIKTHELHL
Experimental: as §1, §2

Substance	phosphorylation by ALK kinase (ELISA), compared with YFF peptide [1]	phosphorylation by Lyn (ELISA) [2]	phosphorylation by Abl (ELISA) [3]	phosphorylation by Csk (ELISA) [4]
FDMDRDIYRMSFFRKGGKbGG (FDMDRDIYRMSFFRKGGK(Biotin)GG) [ALAStide-A, ALK-specific biosensor peptide; Kb is biotinylated lysine]	higher phosphorylation activity than YFF and ALAStide-B	not phosphorylated	not phosphorylated	not phosphorylated
FDMDRDIYTNTFFRKGGKbGG (FDMDRDIYTNTFFRKGGK(Biotin)GG) [ALAStide-B, ALK-specific biosensor peptide; Kb is biotinylated lysine]	comparable phosphorylation level with YFF peptide	not phosphorylated	not phosphorylated	not phosphorylated
FGMARDIYRASFFRKGGKbGG (FGMARDIYRASFFRKGGK(Biotin)GG) [YFF peptide, known peptide substrate of ALK in the literature, reference compound]		lack of affinity	lack of affinity	lack of affinity
